Target: T1, WASp 289-304 signature peptide (human)
T1 construct: Endogenous tryptic peptide released from human dried blood spot digests
T1 peptide: LIYDFIEDQGGLEAVR
Assay: immuno-SRM: peptide enrichment from normal control DBS digests, quantified by LC-SRM-MS

B1: Anti-WASp 289 monoclonal antibody (antibody, V domains shown)
VH: QSVEESGGRLVTPGTPLTLTCTVSGFSLSSSDMTWVRQAPGKGLEYIGYMSSNDRPYYASWANGRFTISKTSTTVTLKITSPTTEDTATYFCCRGVLGTRSIHIWGPGTLVTVSL
VL: IVMTQTPSPVSAAVGGTVTINCQASESVYSDNRLSWYQQKPGQPPKQLIYGASTLASEVSSRFKGSGSGTQFTLTINDVVCDDAATYYCAGYKSSNQDGIGFGGGTEVVVKG
modifications: In the assay the antibody was chemically cross-linked (DMP) to Protein G magnetic beads; the letters do not carry this.
notes: Rabbit monoclonal antibody raised against the KLH-conjugated peptide; The printed light chain holds an X near its C-terminus; In the assay the antibody was cross-linked to Protein G magnetic beads
  binding result: binds
